The record followed here is the RNAGym collection of RNA variant scans (doi:10.7554/elife.90254).

First the molecules themselves.
B1: OR4K15 (parent)
chain: GUUAACGGUCAUAGGCCAUGGAAACUAGGAGCACCAUUUCGCUGCCAGUGAAGAAAUGAACAAAGAAAAUCUGGGCCAGGCAGGCAUCAAAAGAAAUAGUCUUGCGCUCAACCAGAAAGUCUGUAAUCAUUUUAAGGGUA

The variants in this data set derive from B1. The data set can be described thus: self-cleavage, relative activity (ratio to wild type); higher = more cleavage; in vitro, sequencing; the parent is a self-cleaving ribozyme.
As for GUUAACGGUCAUAGGCCAUGGAAACUAGGAGCACCGUUUCGCUGCCAGUGAAGAAAUGAACAAAGAAAAUCUGGGCCAGGCAGGCAUCAAACGAAAUAGUCUUGCGCUCAACCAGAAAGUCUGUAAUCAUUUUAAGGGUA, the self-cleavage came out at 2.15.
With GUUAACGGUCAUAGGCCAUGGAAACUAGGAGCACCAUUUCGCUGCCAGUGAAGAAAUGAACAAAGAAAACCUGGGCCAGGCAGGCAUCAAAAGAAAUAGUCUUGCGCUCAACCAGAAAGUCUGUAAUCAUUUUAAGGGAA, the self-cleavage came out at 1.3.
Regarding GUUAACGGUCAUAGGCCAUGGAGACUAGGAGCACCAUUUCGCUGCCAGUGAAGAAAUGAACAAAGAAAAUCUGGCCCAGGCAGGCAUCAAAAGAAAUAGUCUUGCGCUCAACCAGAAAGUCUGUAAUCAUUUUAAGGGUA, the self-cleavage was 0.16.
Next, GUUAACGGUCAUAGGCCAUGGAAACUAGGAGCACCAUUUCGCUGCCAGUGAAGGAAUGAACAAAGAAAAUCUGGGCUAGGCAGGCAUCAAAAGAAAUAGUCUUGCGCUCAACCAGAAAGUCUGUAAUCAUUUUAAGGGUA: 1.46; GUCAACGGUCAUAGGCCAUGGAAACUAGGAGCACCAUUUCGCUGCCAGUGAAGAAAUGAACAAAGAAAAUCUGGGCCAGGCAGGCAUCAAAAGAAAUAGUCUUGCGCUCAACCAGAGAGUCUGUAAUCAUUUUAAGGGUA: 1.69.
Turning to GUUAACGGUCAUAGGCCAUGGGAACUAGGAGCACCAUUUCGCUGCCAGUGAAGAAAUGAACAAAGAAAAUCUGGGCCAGGCAGGCAUCAAAAGAAAUAGUCUUGCGCUCAACCAGAAAGUCUGUAAUCAUUUCAAGGGUA, the self-cleavage was 0.65.
For the variant GUUAACGGUCAUAGGCCAUGGAAACUAGGAGCACCAUUUAGCUGCCAGUGAAGAAAUGUACAAAGAAAAUCUGGGCCAGGCAGGCAUCAAAAGAAAUAGUCUUGCGCUCAACCAGAAAGUCUGUAAUCAUUUUAAGGGUA, the self-cleavage is 2.
Next, GUUAACGGUCAUAGGCCAUGGAAACUAGGAGCACCAUUUCGCUGCCAGUGAGGAAAUGAACAAAGAAAAUCUGGGCCAGGCAGGCAUCAAAAGAAAUAGACUUGCGCUCAACCAGAAAGUCUGUAAUCAUUUUAAGGGUA: 0.65.
Next, GUUAACGGUCAUAGGCCAUGGAAACUAGGAGCACCAUUUCGCUGCCAGUGGAGAAAUGAACAAAGAAAAUCUGGGCCAGGCAGGCAUCAAAAGAAAUAGUCUUGCGCUCAACCAGAAAGUCUGUAAUCAUUUUAAGGGUU: 1.35; GUUAACGGUCAUAGGCCAUGGAAUCUAGGAGCACCAUUUCGCUGCCAGUGAAGAAAUGAACAAAGAAAAUCUGGGCCAGGCAGGCAUCAAAAGAAAUAGACUUGCGCUCAACCAGAAAGUCUGUAAUCAUUUUAAGGGUA: 0.31.
Regarding GUUAACGGUCAUAGGCCAUGGAAACUAGGAGCACCAUUUCGCUGCCAGUGGAGAAAUGAACAAAGAAAAUCUGGGCCAGGCAGGCAUCAAAAGAAAUAGUCUUGCGCUCAACCAGAAAGUCUGUAAUCACUUUAAGGGUA, the self-cleavage is 0.54.
For the variant GUUAACGGUCAUAGGCCAUGGAAACUAGGAGCACCAUUUCGCUGCCAGUGAAGAAAUGAACAAAGAAAAUCUGGGCCAGGCAGGCAUCAAAAGAAAUAGCCUUGCGCUCAACCAGAAAGUCUGUAAUCAUUUUUAGGGUA, the self-cleavage amounted to 2.45.
In the case of GUUAACGGUCAUAGGCCAUGGAAACUAGGAGCACCAUUUCGCUGCCAGUGAAGAGAUGAACAAAGAAAAUCUGGGCCAGGCAGGCAUCAAAAGAAAUAGUCUUGCGAUCAACCAGAAAGUCUGUAAUCAUUUUAAGGGUA, the self-cleavage came out at 0.02.
With GUUAACGGUAAUAGGCCAUGGAAACUAGGAGCACCAUUUCGCUGCCAGUGAAGAAAUGAACAAAGAAAAUCUGGGCCAGGCAGGCAUCAAAAGAAAUAGUCUUGCGCUCAACCAGAAAGUCUGUAACCAUUUUAAGGGUA the figure was 0.84.
With GUUAACGGUCAUAGGCCAUGGAAACUAGGAGCACCAUUUCGCUGCCAGUGAAGAAAUGAACAAAGAAAAUCUGGGCCAGGCAGGGAUCAAAAGAAAUAGUCUUGCGCUCAACCAGAAAGUCUGUAAUCACUUUAAGGGUA the figure was 0.34.
For the variant GUUAACGGUCAUAGGCCACGGAAACUAGGAGCACCAUUUCGCUGCCAGUGAAGAAAUGAACAAAGAAAAUCUGGGCCAGGCAGGCAUCAAAAGAAAUAGUCUUGCGCUCAACCAGAAAGUCUGUAAUCCUUUUAAGGGUA, the self-cleavage came to 1.72.
Next, GUUAACGGUCUCAGGCCAUGGAAACUAGGAGCACCAUUUCGCUGCCAGUGAAGAAAUGAACAAAGAAAAUCUGGGCCAGGCAGGCAUCAAAAGAAAUAGUCUUGCGCUCAACCAGAAAGUCUGUAAUCAUUUUAAGGGUA: 0.97; GUUAACGGUCAUAGGCCAUGGAAACUAGGAGCACCAUUUCGCUGCCAGUGAAGAAAUGAACAAAGAAAAUCUGGGCCAGGCAGGCAUCAAAAGAAAUAGUCUUGCGCUCAGCCAGAAAGUCUGAAAUCAUUUUAAGGGUA: 0.02.
Consider GUUAACGGUCAUAGGCCAUGGAAACUAGGAGCACCAUUUCGCAGCCAGUGAAGAAAUGAACAAAGGAAAUCUGGGCCAGGCAGGCAUCAAAAGAAAUAGUCUUGCGCUCAACCAGAAAGUCUGUAAUCAUUUUAAGGGUA, for which the self-cleavage turned out to be 1.96.
GUUAACGGUCAUAGGCCAUGGAAACUAGGAGCACCAUUCCGCUGCCAGUGAAGAAAUGAACAAAGAAAAUCUGGGCCAGGCAGGCAUCAAAAGAAACAGUCUUGCGCUCAACCAGAAAGUCUGUAAUCAUUUUAAGGGUA: the self-cleavage was found to be 1.29.
Next, GUUAACGGUCAUAGGCCACGGAAACUAGGAGCACCAUUUCGCUGCCAGUGAAGAGAUGAACAAAGAAAAUCUGGGCCAGGCAGGCAUCAAAAGAAAUAGUCUUGCGCUCAACCAGAAAGUCUGUAAUCAUUUUAAGGGUA: 1.17.
Next, GUUAACGGUCAUAGGCCAUGGAAACUAGGAGCACCAUUUCGCUGCCAGUGAAGAUUUGAACAAAGAAAAUCUGGGCCAGGCAGGCAUCAAAAGAAAUAGUCUUGCGCUCAACCAGAAAGUCUGUAAUCAUUUUAAGGGUA: 0.55; GUUAACGGUCAUAGGCCAUGGAAACUAGGAGCACCAUUUCGCUGCCAGUGAAGAAAUGAACAAAGAAAAUCUGGGCCAGGCAGGCUUCAAAAGAAAUAGUCUUGCGCUCAACCGGAAAGUCUGUAAUCAUUUUAAGGGUA: 1.22; GUUAACGGUCAUAGGCCAUGGAAACUAGGAGCACCAUUUCGCUGCCAGUGAAGAAAUGAACAAGGAAAAUCUGGGCCAGGCAGGCAUCAAAAGAAAUAGUCUUGCGCUCAACCGGAAAGUCUGUAAUCAUUUUAAGGGUA: 0.31.
With GUUAACGGUCAUAGGCCAUGGAAACUAGGAGCACCAUUUCGCUGCCAGAGAAGAAAUGAACAAAGAAAAUCCGGGCCAGGCAGGCAUCAAAAGAAAUAGUCUUGCGCUCAACCAGAAAGUCUGUAAUCAUUUUAAGGGUA the figure was 0.16.
For GUUAACGGUCAUAGGCCAUGGAAACUAGGAGCACCAUUUCGCUGCCAGUGAAGAAAUGAACGAAGAAAAUCUGGGCCAGGCAGGCAUCAAAAGAAAUAGUCUUGCGCUCAACCAGAAUGUCUGUAAUCAUUUUAAGGGUA, the self-cleavage worked out at 0.73.
Next, GUUAACGGACAUAGGCCAUGGAAACUAGGAGCACCAUUUCGCUGCCAGUGAAGAAAUGAACAAAGAAAAUCUGGGCCAGGCAGGCAUCAAAAGAAAUAGUCUUGCGCUAAACCAGAAAGUCUGUAAUCAUUUUAAGGGUA: 0.42; GUUAACGGUCAUAGGCCAUGGAAACUAGGAGCACCAUUUCGCUGCCAGUGAAGAAAUGAACAAAGAAAAUCUGGGCCAGGCAGGCAUCAAAAGAAAUAGUCUUGCGCUCAACCAGAACGUCAGUAAUCAUUUUAAGGGUA: 1.12.
Consider GUUAACGGUCAUAGGCCAAGGAAGCUAGGAGCACCAUUUCGCUGCCAGUGAAGAAAUGAACAAAGAAAAUCUGGGCCAGGCAGGCAUCAAAAGAAAUAGUCUUGCGCUCAACCAGAAAGUCUGUAAUCAUUUUAAGGGUA, for which the self-cleavage came out at 0.29.
As to GUUAACGGUCAUAGGCCAUGGAAACUAGGAGCACCAUUUCGCUGCCAGUGAAGAAAUGAACAAAGAAAAUCUGGGCCAGGCAGGCAUCAAAAGAAAUAGUCUUGCGCUCAACCAGAAAGUCUGUUAUCACUUUAAGGGUA, the self-cleavage stood at 1.66.
Next, GUUAACGGUCAUAGGCCAUGGAAACUAGGAGCACCAUUUCGCUGCCAGUGAAGAAAUGAACAAAGAGAAUCUGGGCCAGGCAGGCAUCAAAAGAAAUAGUCUUGCGCUCAACCAGAAAGUCUGUAAUCAUUUUAAGGGUA: 1.1; GUUAACGGUCAUAGGCCAUGGAAACUAGGAGCACCAUUUCGCUGCCAGUGAAGAAAUGAACAAAGAAAAUCUGGGCCAGGCAGGCAUCCGAAGAAAUAGUCUUGCGCUCAACCAGAAAGUCUGUAAUCAUUUUAAGGGUA: 0.73; GUUAACGGUCAUAGGCCAUGGAAACUAGGAGCACCAUUUCGCUGCCAGUGAAGAAAAGAACAAAGAAAAUCUGGGCCAGGCAGGCAUCAAAAGAAAUAGUCUUGCGCUCAACCAGAAAGUCUGCAAUCAUUUUAAGGGUA: 0.68.
With GUUAACGGUCAUAGGCCAUGGAAACUAGGAGCACCAUUUCGCCGCCAGUGUAGAAAUGAACAAAGAAAAUCUGGGCCAGGCAGGCAUCAAAAGAAAUAGUCUUGCGCUCAACCAGAAAGUCUGUAAUCAUUUUAAGGGUA the figure was 1.35; with GUUAACGGUCAUAGGUCAUGGAAACUAGGAGCACCAUUUCGCUGCCAGUGAAGAAAUGAACAAAGAAAAUCUGGGCCAGGCAGGCAUCAAAAGAAGUAGUCUUGCGCUCAACCAGAAAGUCUGUAAUCAUUUUAAGGGUA, 1.27.
As for GUUAACGAUCAUAGGCCAUGGAAACUAGGAGCACCAUUUCGCUGCCAGUGAAGAAAUGAACAAAGAAAAUCUGGGCCAGGCAGGCAUCAAAAGAAAUAGUCUUGCGCUCAACCAGAAGGUCUGUAAUCAUUUUAAGGGUA, the self-cleavage turned out to be 1.28.
Next, GUUAACGGUCAUAGGCCAUGGAAACUAGGAGCACCAUUUCGCUGCCAGUGAAGAAAUGAACAAAGAAAAUCUGGGCCAGUCAGGCAUCAAAAGAAAUAGUCUUGCGCUCAACCAGAAAGUCUGUAAUCAUUUUAAGGGUA: 0.1.
Next, GUUAACGGUCAUAGGCCAUGGAAACUAGGAGCACCAUUUCGCUGCCAGUGAAGAAAUGAACAAAGAAAAUCUGGGCCAGGCAGGCAUCAAAAGAAAUAGUCUUGCGCUCAACCAGAAAGUCUGUCAUCAUUUUAAGGGUA: 0.46; GUUAACGGUCAUAGGCCAUGGAAACUAGGAGCACCAUUUCGCUGCCAGUGAAGAAAUGAACAAAGAAAAUCAGGGCCAGGCAGGCAUCAAAAGAAAUAGUCUUGCGCUCGACCAGAAAGUCUGUAAUCAUUUUAAGGGUA: 0.06; GUUAUCGGUCAUAGGCCAUGGAAACUAGGAGCACCAUUUCGAUGCCAGUGAAGAAAUGAACAAAGAAAAUCUGGGCCAGGCAGGCAUCAAAAGAAAUAGUCUUGCGCUCAACCAGAAAGUCUGUAAUCAUUUUAAGGGUA: 1.82.
Next, GUUAACGGUCAUAGGCCAUGGAAACUAGGAGCACCAUUUCGCUGCCAGUGAAGAAAUGAACAAAGAAAAUCUGGGCCAGGCAGGCAUCUAAAGAAAUAGUCUUCCGCUCAACCAGAAAGUCUGUAAUCAUUUUAAGGGUA: 0.01.
